Data on one molecule can be found in article PMC3267040, “Structure of a Blinkin-BUBR1 Complex Reveals an Interaction Crucial for Kinetochore-Mitotic Checkpoint Regulation via an Unanticipated Binding Site” (Structure(London, England:1993), 2011).

Data set [1] has as its target T1, BUBR1_(57-220), recombinant protein (human, UniProt O60566 57-220).
T1 construct: BUBR1, human, residues 57-220 (TPR-containing domain); 15N,13C-labelled for NMR; also called native BUBR1; free BUBR1
Put plainly: fluorescence-based thermal shift assay; Tm of BUBR1_(57-220) without and with Blinkin S208-K226 peptide. The following applies: both partners purified.

Data set [2] concerns the target T1, BUBR1_(57-220), recombinant protein. Put plainly: ITC; BUBR1_(57-220) at 27 μM titrated against 200 μM of Blinkin peptide S208-K226. The following applies: both partners purified. (Isothermal titration calorimetry measures the heat released or taken up as one component is titrated into another.)

T1 sequence (O60566 57-220): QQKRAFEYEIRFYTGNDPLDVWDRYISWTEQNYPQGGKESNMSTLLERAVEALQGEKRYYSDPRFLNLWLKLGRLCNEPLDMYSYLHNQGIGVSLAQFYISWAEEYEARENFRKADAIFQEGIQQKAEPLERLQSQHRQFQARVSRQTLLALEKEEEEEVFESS

B1: Blinkin S208-K226 peptide (peptide, UniProt Q8NG31-2 208-226, looked up)
peptide: SSENKIDFNDFIKRLKTGK
notes: Blinkin (KNL1, CASC5), human, NCBI NP_653091.2, residues S208-K226; peptide synthesis is in the supplement; also called Blinkin peptide; source: synthetic peptide
With B1, in data set [1], the “increase of the Tm of BUBR1_(57-220) on addition of the peptide” value was about 2 °C. In addition, in data set [2], the Kd (in general, the free concentration of one partner at which half of the binding sites on the other are occupied at equilibrium, for simple one-to-one binding) was 9.3 ± 0.4 µM; the dH is -2.7 kcal/mol; the stoichiometry N – broadly, the number of molecules, sites or subunits per partner or assembly – was determined as 1.
